Test [1] deals with T1, human PVRIG on FlpinCHO-PVRIG cells (human, UniProt Q6DKI7 41-326).
T1 construct: whole, on cells
T1 sequence (looked up): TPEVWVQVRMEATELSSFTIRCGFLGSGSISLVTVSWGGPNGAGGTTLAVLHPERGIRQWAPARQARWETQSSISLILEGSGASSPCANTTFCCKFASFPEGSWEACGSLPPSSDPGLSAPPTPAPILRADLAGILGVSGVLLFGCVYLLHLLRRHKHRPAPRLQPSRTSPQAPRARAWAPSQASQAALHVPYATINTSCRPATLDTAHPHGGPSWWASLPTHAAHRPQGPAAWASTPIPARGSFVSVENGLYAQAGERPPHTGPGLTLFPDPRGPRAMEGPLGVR
The test is described as follows: FACS, FlpinCHO-PVRIG cells. For orientation: In flow cytometry, cells or beads pass a laser one at a time.

Test [2] concerns the target T2, cynomolgus monkey PVRIG on FlpinCHO-cyno PVRIG cells (cynomolgus monkey, UniProt A0A2K5WVV8 41-322).
T2 construct: whole, on cells
T2 sequence: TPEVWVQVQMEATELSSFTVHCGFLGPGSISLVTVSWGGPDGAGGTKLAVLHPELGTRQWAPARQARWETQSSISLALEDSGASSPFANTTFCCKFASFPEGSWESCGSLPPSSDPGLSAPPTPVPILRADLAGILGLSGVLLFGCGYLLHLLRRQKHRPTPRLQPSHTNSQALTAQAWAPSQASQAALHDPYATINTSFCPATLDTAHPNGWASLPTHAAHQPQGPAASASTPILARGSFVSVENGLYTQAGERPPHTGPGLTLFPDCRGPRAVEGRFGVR
Kind of test: FACS, FlpinCHO-cyno PVRIG cells. The procedure: The antibodies were diluted from the highest concentration of 46 nM (two-fold concentration) with staining buffer by 3.3-fold serial dilution. The diluted antibodies were added to the well containing 50 μL of cell suspension. The plate was placed on a microplate shaker at 400 rpm for 1 minute to fully mix the antibodies and cells, and then incubated at 4° C. for 30 minutes. After the incubation, the cells were washed twice with staining buffer (200 μL per well) and centrifuged at 350×g for 5 minutes to discard the supernatant. The PE goat anti-human IgG Fc antibody (ebioscience, 12-4998-82) was diluted 250 times with staining buffer, added into the washed wells (100 μL per well), mixed well, and stained at 4° C. for 30 minutes. After staining, the cells were washed twice with staining buffer, finally resuspended with 200 μL staining buffer and analyzed by flow cytometry (BD, Canto II). The stronger the signal, the stronger the ability of the antibodies binds to PVRIG. An antibody binding curve was drawn with concentration of antibodies as the abscissa and the corresponding Mean Fluorescence Intensity (MFI) as the ordinate. The AUC value of the curve was calculated by using a Four Parameter Logistic Fit (GraphPadPrism9). The stronger the AUC value, the stronger the ability of the antibodies binds to FlpinCHO-PVRIG and FlpinCHO-cyno PVRIG. […] The binding activity of the antibodies was normalized to the positive control COM701-hIgG1 and SRF813-hIgG1. The higher the percentage value, the stronger the binding ability of the antibodies.
The methods refer to Example 19. The stronger the AUC value, the stronger the ability of the humanized antibodies binds to FlpinCHO-human/cyno PVRIG.

Test [3] concerns the target T3, human PVRIG-his (AcroBiosystems, Cat NO. PVG-H52H4) (human, UniProt Q6DKI7 41-171, limits assumed).
T3 construct: also called human PVRIG protein
T3 sequence (looked up): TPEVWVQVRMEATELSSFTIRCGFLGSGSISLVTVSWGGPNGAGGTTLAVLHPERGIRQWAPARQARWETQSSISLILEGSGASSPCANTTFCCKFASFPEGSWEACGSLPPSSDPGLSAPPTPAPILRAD
The test is described as follows: SPR (BIAcore), antibody captured on Protein A chip, human PVRIG-His analyte.

B1: PVRIG-A118-H3 (Fc fusion)
chain: EVQLVESGGGLVQPGGSLRLSCAASETYFDLYVMGWYRQAPGKDRELVATITYTGSIKYVDSVKGRFTISRGDAKNSLYLQMNSLRAEDTAVYYCNADPSGLGRKVYWGQGTMVTVSS
notes: humanized variant of PVRIG-A118; also called A118.VH3; not shown: constant part not restated for the humanized forms; parents are VHH-hinge-CH2-CH3 of human IgG1; detected by anti-human
As a reminder, the Kd is the concentration at which binding is half-saturated. As a reminder, the koff is the first-order rate constant of dissociation. For orientation: kon means the second-order rate constant of association. B1: in test [1], the “AUC % to COM701-hIgG1” value was determined as 129%, the “AUC % to SRF813-hIgG1” value is 180% and the “AUC % to parental Ab” value stood at 94.5%. For the same molecule, in test [2], the “AUC % to COM701-hIgG1” value came out at 21%, the “AUC % to SRF813-hIgG1” value worked out at 25.6% and the “AUC % to parental Ab” value was 33.6%. In test [3], this molecule returned a Kd of 1.35 nM, a koff of 0.00349 s⁻¹ and a kon of 2.59e+06 M⁻¹ s⁻¹.

B2: PVRIG-A118-H1 (Fc fusion)
chain: EVQLVESGGGLVQPGGSLRLSCAASETYFDLYVMGWYRQAPGKDRELVATITYTGSIYYVDSVKGRFTISRDNAKNSLYLQMNSLRAEDTAVYYCNADPSGLGRKVYWGQGTMVTVSS
notes: humanized variant of PVRIG-A118; also called A118.VH1; not shown: constant part not restated for the humanized forms; parents are VHH-hinge-CH2-CH3 of human IgG1; detected by anti-human
With B2, in test [1], the “AUC % to COM701-hIgG1” value was found to be 127%, the “AUC % to SRF813-hIgG1” value came to 178% and the “AUC % to parental Ab” value came to 93.2%. In addition, in test [2], the “AUC % to COM701-hIgG1” value came to 11.5%, the “AUC % to SRF813-hIgG1” value amounted to 14.1% and the “AUC % to parental Ab” value amounted to 18.5%. Also, in test [3], the Kd amounted to 0.478 nM, the koff was 0.000658 s⁻¹ and the kon was determined as 1.38e+06 M⁻¹ s⁻¹.

B3: PVRIG-A118-H2 (Fc fusion)
chain: EVQLVESGGGLVQPGGSLRLSCAASETYFDLYVMGWYRQAPGKDRELVATITYTGSIKYVDSVKGRFTISRDNAKNSLYLQMNSLRAEDTAVYYCNADPSGLGRKVYWGQGTMVTVSS
notes: humanized variant of PVRIG-A118; also called A118.VH2; not shown: constant part not restated for the humanized forms; parents are VHH-hinge-CH2-CH3 of human IgG1; detected by anti-human
As for B3, in test [1], the “AUC % to COM701-hIgG1” value turned out to be 125%, the “AUC % to SRF813-hIgG1” value is 174% and the “AUC % to parental Ab” value is 91.3%. In test [2], the “AUC % to COM701-hIgG1” value stood at 14.6%, the “AUC % to SRF813-hIgG1” value turned out to be 17.8% and the “AUC % to parental Ab” value was 23.4%. In test [3], this molecule displayed a Kd of 0.517 nM, a koff of 0.00082 s⁻¹ and a kon of 1.59e+06 M⁻¹ s⁻¹.

B4: PVRIG-A50-H1d (Fc fusion)
chain: EVQLVESGGGLVQPGGSLRLSCAASGFTFSYYDMSWVRQAPGKGLEWVSTINSNGGRTSYVDSVKGRFTISRDNSKNTLYLQMNSLRAEDTAVYYCVEGDPHNFGLESLSLRDFGSWGQGTMVTVSS
notes: humanized variant of PVRIG-A50; also called A50.VH1d; not shown: constant part not restated for the humanized forms; parents are VHH-hinge-CH2-CH3 of human IgG1; detected by anti-human
B4: in test [1], the “AUC % to COM701-hIgG1” value was 63.1%, the “AUC % to SRF813-hIgG1” value was 112% and the “AUC % to parental Ab” value was 85.9%. Moreover, in test [2], the “AUC % to COM701-hIgG1” value was 48.6%, the “AUC % to SRF813-hIgG1” value worked out at 59.7% and the “AUC % to parental Ab” value is 103%. In test [3], binding was put at a Kd of 0.0545 nM, the koff was determined as 1.43e-05 s⁻¹ and the kon came to 262000 M⁻¹ s⁻¹.

The record behind these values is patent publication US20240343803A1 (SHANDONG SIMCERE BIOPHARMACEUTICAL, published 2024).
